Laboratory results from paper PMC4768246, “A novel cold-adapted and highly salt-tolerant esterase from Alkalibacterium sp. SL3 from the sediment of a soda lake” (Scientific Reports, 2016).

Substrate: CC(=O)Oc1ccc([N+](=O)[O-])cc1
Assay: purified protein
Format: biochemical, Alkalibacterium sp. SL3
Details: 50 mM Tris-HCl pH 9.0, 30 °C, 5 min, 0.05–5 mM substrate

B1: EstSL3 (rEstSL3) (Alkalibacterium sp. SL3) (protein)
chain: MKINKNDTLLFIGDSITDVGRDRMDGEDLGKGFPLMVASHLQSRYPAKRLTVLNRGIGGDSLKDLKRRWEDDCLITNPDIVTLLIGVNDTWRNQNDGVELTDEELDEFESDYRFLLKSLHQRTDARVILMESFVLPYPKRRVGWRNDLDKRIQIVRKMARDYQTELIPLDGLLNAAGIRDGFSYYTGDDGVHPTVAGHGLIANSWLKAVDE
notes: His6-tagged from pET-28a(+) (NcoI-HindIII), E. coli BL21(DE3), Ni-NTA; internal peptides LTVLNRGIGGDSLKDLK, TDARVILMESFVLPYPKR, VGWRNDLDK; catalytic Ser15, Asp189, His192
Question: For B1, which Km is on record?
Answer: 150 ± 10 µM

Question: What about the kcat of the same protein?
Answer: 307.69 s⁻¹
